The target in experiment [1] is kappa opioid receptor, P41145. Kind of experiment: PDSP receptor binding; log of Ki in M.
Experiment [2] deals with kappa opioid receptor (UniProt P41145). The experiment in a line: PDSP receptor binding, selectivity against MOR; from the 10,000 nM ceiling.
The target of experiment [3] is delta opioid receptor (UniProt P41143). The experiment is described as above.
The target in experiment [4] is kappa opioid receptor (UniProt P41145). Kind of experiment: PDSP receptor binding; binding eliminated by the text.
Experiment [5] addresses delta opioid receptor (UniProt P41143). Described as above.
The target in experiment [6] is mu opioid receptor (UniProt P35372). The experiment in a line: PDSP receptor binding; log of Ki in M.
The target is the same in experiment [7]. Kind of experiment: PDSP receptor binding.
Experiment [8] has the same target. The experiment in a line: PDSP receptor binding; against the glycosylated Trp analogs.

Bridges are numbered along the chain shown (N, C = ends). Where no end group is shown, it is not given here. [ ]: non-standard residue; d: D form. Glc = glycosylated with D-glucose; Lact = not defined here Some results are limits rather than exact numbers.

One may read the Ki as the equilibrium dissociation constant of an inhibitor or competing ligand from its target. The low end stands for tighter binding, the high end for weaker binding.

B1: Analog A8: Tyr-c[D-Lys-Trp-Phe-Glu]-Ser-NH2 (peptide)
peptide: Y[dK]WFES-NH2
modifications: lactam 2-5
B1 had a Log Ki in experiment [1] of -5.98.

B2: Analog A4 (D-Nal at position 3, C-terminus Ser(Glc)CONH2) (peptide)
peptide: YK[dNal]FES(Glc)-NH2
modifications: not fully specified
Regarding B2, the kap/mu (ratio of Ki at KOR to Ki at MOR) in experiment [2] was above 157. Also, the del/mu (ratio of Ki at DOR to Ki at MOR) in experiment [3] is above 157. For the same molecule, the inhibition constant (Ki) in experiment [4] is above 10 µM; in experiment [5] it was above 10 µM; in experiment [7] it was 0.0635 µM. In addition, the Log Ki in experiment [6] was -7.2. The further fold reduction of MOR binding by D-Nal at position 3 in experiment [8] is 11 fold.

B3: Analog A5 (D-Nal at position 3, C-terminus Ser(Lact)CONH2) (peptide)
peptide: YK[dNal]FES(Lact)-NH2
modifications: not fully specified; reading uncertain
Regarding B3, the kap/mu (ratio of Ki at KOR to Ki at MOR) in experiment [2] was above 181. In addition, the del/mu (ratio of Ki at DOR to Ki at MOR) in experiment [3] is above 181. Further, the Ki in experiment [4] was above 10 µM; in experiment [5], above 10 µM; in experiment [7], 0.0553 µM. The molecule also came in with a Log Ki in experiment [6] of -7.26. Besides, the further fold reduction of MOR binding by D-Nal at position 3 in experiment [8] was 11 fold.

The values are drawn from US20250296958A1, “GL[…] E[…]” (THE ADMINISTRATORS OF THE TULANE EDUCATIONAL FUND, priority 2022, published 2025).
